# How the values were obtained:
# Type in all cases: biochemical, Saccharomyces cerevisiae
# [1] = In vitro NADH-dependent furan reductase activity of ADH1 mutants in cell extracts, furfural as substrate; parameters: key: —: no detectable activity; detectable activity (ranging from moderate (+) to very high (+++)); detectable activity (ranging from moderate (+) to very high (+++)); detectable activity (ranging from moderate (+) to very high (+++)); settings: 10 mM furfural, 200 μM NADH, cell extract of CEN.PK 113-5D transformant, pH 6.7, 30° C.
# Experimental: (§1) Plasmid carrying individual or combined mutations within the ADH1 gene were introduced in strain CEN.PK 113-5D by transformation according to the lithium acetate method (Gietz et al., 1992, Improved method for high efficiency transformation of intact yeast cells. Nucleic Acids Research 20:1425). Selection was performed on SD plates without uracil. The resulting strains were grown aerobically at 30° C. in 25 mL SD medium without uracil (in 250 mL baffled flask). Cell extracts were prepared by harvesting the cells at OD620 7.5-8.5, re-suspending the cells in Y-PER solution (Pierce, Rockford, Ill., USA), 1 mL/0.6gr cells, shaking at room temperature for 50 min. The supernatant was collected after centrifugation for 20 min at 15000 g. In vitro NADH-dependent furan reductase activity was measured by following the oxidation of NADH at 340 nm in a Hitachi U-2000 spectrophotometer (Hitachi, Tokyo, Japan). The assay consisted of 10 mM furaldehyde (HMF or furfural), 200 μM NADH and cell extract in 100 mM phosphate buffer (pH 6.7) at 30° C.
# [2] = In vitro NADH-dependent furan reductase activity of ADH1 mutants in cell extracts, HMF as substrate; parameters: key: —: no detectable activity; detectable activity (ranging from moderate (+) to very high (+++)); detectable activity (ranging from moderate (+) to very high (+++)); detectable activity (ranging from moderate (+) to very high (+++)); settings: 10 mM HMF, 200 μM NADH, cell extract of CEN.PK 113-5D transformant, pH 6.7, 30° C.
# Experimental: as §1
# [3] = Enzyme kinetics of Adh1 variants, NADH-dependent reduction of acetaldehyde
# Experimental: (§2) Cells were grown aerobically at 30° C. in 25 mL SD medium without uracil (in 250 mL baffled flask). Cell extracts were prepared by harvesting the cells at OD620 7.5-8.5, re-suspending the cells in Y-PER solution (Pierce, Rockford, Ill., USA), 1 mL/0.6 gr cells, shaking at room temperature for 50 min. The supernatant was collected after centrifugation for 20 min at 15000 g.
# (§3) In vitro NADH-dependent furan reductase activity was measured by following the oxidation of NADH at 340 nm in a Hitachi U-2000 spectrophotometer (Hitachi, Tokyo, Japan). NADH-dependent aldehyde reduction was determined (Wahlbom and Hahn-Hägerdal, 2002) with 200 μM NADH. Reduction kinetics were determined for acetaldehyde (range […]-100 mM), furfural (100 μM-20 mM) and HMF (500 μM-20 mM). For native Adh1 furfural was used up to 40 mM.
# (§4) Modeling was performed according to the Michaelis-Menten equation with the addition of a substrate inhibition constant: V=(Vmax·[S])/(Km+[S]+[S]2/KI), V—velocity, Vmax—maximal velocity, Km—affinity constant, Ki—substrate inhibition constant, and [S]—substrate concentration. Parameter value estimation was according to the least square method, using the solver function in Microsoft® Excel 2002. HMF activity parameters of strain BY474-ADH1-S117L were estimated without the substrate inhibition constant due to a clear discrepancy of the substrate inhibition model with actual data.
# [4] = Enzyme kinetics of Adh1 variants, NADH-dependent reduction of furfural
# Experimental: as §2, §3, §4
# [5] = 200 μM NADH, cell extract of BY4741
molecule,measurement,setting,value
"V59T-Q148E-I152V-L117S-Y295C: mutated Adh1 from TMB3000 with reverse mutation at position 110 (protein, UniProt P00330 2-348, looked up, variant V59T Q148E I152V L117S Y295C) Alcohol dehydrogenase 1: SIPETQKGVIFYESHGKLEYKDIPVPKPKANELLINVKYSGVCHTDLHAWHGDWPLPTKLPLVGGHEGAGVVVGMGENVKGWKIGDYAGIKWLNGSCMACEYCELGNESNCPHADSSGYTHDGSFQQYATADAVQAAHIPQGTDLAEVAPVLCAGITVYKALKSANLMAGHWVAISGAAGGLGSLAVQYAKAMGYRVLGIDGGEGKEELFRSIGGEVFIDFTKEKDIVGAVLKATDGGAHGVINVSVSEAAIEASTRYVRANGTTVLVGMPAGAKCCSDVFNQVVKSISIVGSCVGNRADTREALDFFARGLVKSPIKVVGLSTLPEIYEKMEKGQIVGRYVVDTSK",NADH-dependent Activity Furfural Reductase,[1],+
same,NADH-dependent Activity HMF reductase,[2],+
"V59T-Q148E-I152V-S110P-L117S: mutated Adh1 from TMB3000 with reverse mutation at position 295 (protein, UniProt P00330 2-348, looked up, variant V59T Q148E I152V S110P L117S) Alcohol dehydrogenase 1: SIPETQKGVIFYESHGKLEYKDIPVPKPKANELLINVKYSGVCHTDLHAWHGDWPLPTKLPLVGGHEGAGVVVGMGENVKGWKIGDYAGIKWLNGSCMACEYCELGNEPNCPHADSSGYTHDGSFQQYATADAVQAAHIPQGTDLAEVAPVLCAGITVYKALKSANLMAGHWVAISGAAGGLGSLAVQYAKAMGYRVLGIDGGEGKEELFRSIGGEVFIDFTKEKDIVGAVLKATDGGAHGVINVSVSEAAIEASTRYVRANGTTVLVGMPAGAKCCSDVFNQVVKSISIVGSYVGNRADTREALDFFARGLVKSPIKVVGLSTLPEIYEKMEKGQIVGRYVVDTSK",NADH-dependent Activity Furfural Reductase,[1],+
"BY4741-control: native S. cerevisiae Adh1 (V59, S110, L117, Q148, I152, Y295) overexpressed in ΔAdh1 strain BY4741 (protein, UniProt P00330 2-348, looked up) Alcohol dehydrogenase 1: SIPETQKGVIFYESHGKLEYKDIPVPKPKANELLINVKYSGVCHTDLHAWHGDWPLPVKLPLVGGHEGAGVVVGMGENVKGWKIGDYAGIKWLNGSCMACEYCELGNESNCPHADLSGYTHDGSFQQYATADAVQAAHIPQGTDLAQVAPILCAGITVYKALKSANLMAGHWVAISGAAGGLGSLAVQYAKAMGYRVLGIDGGEGKEELFRSIGGEVFIDFTKEKDIVGAVLKATDGGAHGVINVSVSEAAIEASTRYVRANGTTVLVGMPAGAKCCSDVFNQVVKSISIVGSYVGNRADTREALDFFARGLVKSPIKVVGLSTLPEIYEKMEKGQIVGRYVVDTSK",[S]Vmax - substrate concentration at observed Vmax,[3],1 mM
same,Ki (substrate inhibition constant),[3]; [5],12.5326 mM
same,obsVmax (observed Vmax),[3]; substrate acetaldehyde,35300 mU/mg
same,Km,"[3]; substrate acetaldehyde, 200 μM NADH, cell extract of BY4741",0.217 mM
same,Vmax,"[3]; substrate acetaldehyde, 200 μM NADH, cell extract of BY4741, model with substrate inhibition",45070 (mU)/mg
same,[S]Vmax - substrate concentration at observed Vmax,[4],30 mM
same,Ki (substrate inhibition constant),[4]; [5],1363 mM
same,obsVmax (observed Vmax),[4]; substrate furfural,4345 mU/mg
same,Km,"[4]; substrate furfural, 200 μM NADH, cell extract of BY4741",18.8 mM
same,Vmax,"[4]; substrate furfural, 200 μM NADH, cell extract of BY4741, model with substrate inhibition",6530 (mU)/mg
"S110P: native Adh1 with the single substitution S110P (protein, listed as Saccharomyces cerevisiae) MSIPETQKGVIFYESHGKLEYKDIPVPKPKANELLINVKYSGVCHTDLHAWHGDWPLPTKLPLAGGHEGAGVVVGMGENVKGWKIGDYAGIKWLNGSCMACEYCELGNEPNCPHADSSGYTHDGSFQQYATADAVQAAHIPQGTDLAEVAPVLCAGITVYKALKSANLMAGHWVAISGAAGGLGSLAVQYAKAMGYRVLGIDGGEGKEELFRSIGGEVFIDFTKEKDIVGAVLKATDGGAHGVINVSVSEAAIEASTRYVRANGTTVLVGMPAGAKCCSDVFNQVVKSISIVGSYVGNRADTREALDFFARGLVKSPIKVVGLSTLPEIYEKMEKGQIVGRYVVDTSK",NADH-dependent Activity Furfural Reductase,[1],++
"Y295C: native Adh1 with the single substitution Y295C (protein, listed as Saccharomyces cerevisiae) MSIPETQKGVIFYESHGKLEYKDIPVPKPKANELLINVKYSGVCHTDLHAWHGDWPLPTKLPLAGGHEGAGVVVGMGENVKGWKIGDYAGIKWLNGSCMACEYCELGNESNCPHADSSGYTHDGSFQQYATADAVQAAHIPQGTDLAEVAPVLCAGITVYKALKSANLMAGHWVAISGAAGGLGSLAVQYAKAMGYRVLGIDGGEGKEELFRSIGGEVFIDFTKEKDIVGAVLKATDGGAHGVINVSVSEAAIEASTRYVRANGTTVLVGMPAGAKCCSDVFNQVVKSISIVGSCVGNRADTREALDFFARGLVKSPIKVVGLSTLPEIYEKMEKGQIVGRYVVDTSK",NADH-dependent Activity Furfural Reductase,[1],+++
same,NADH-dependent Activity HMF reductase,[2],+
